# Measured values from patent US20220033484A1 (FAPON BIOTECH, published 2022).
# Positions count from the first letter of the chain named.
# B1: WT 1-51 (antibody, V domains shown)
# VH: EVQLQQSGPELVKPGASVKMSCKASGYSFTIYVVHWVKQKPGQGLEWIGYIQPYIDGTRYNEKFKGKATLTVDKSSSTAFMELSSLTSEDSAVYYCARTGYGQYGLAWLAYWGQGTLVTVSA
# VL: QAVVIQESALTTSPGETVTLTCRSSSGAATTSQYANWVQEKPDHLFTGLIGGSNNRAPGVPARFSGSLIGDKAALTITGAQTEDEAIYFCAIVYSNHWVFGGGTKLTVLG
# notes: Heavy chain built as m63
# B2: Mutation 1-9 (antibody, V domains shown)
# VH: B1 VH with S28T, I31L, I55L, R59K, T99S
# VL: B1 VL with S26T, Q33N, N54Q, I92L
# notes: Built as m8
# B3: Mutation 1-28 (antibody, V domains shown)
# VH: B1 VH with S28T, I31L, V34L, Q52Y, I55L, R59K, T99S, Q103N
# VL: B1 VL with S26T, I92L, H97Q
# notes: Built as m8
# B4: Mutation 1-33 (antibody, V domains shown)
# VH: B1 VH with S28T, I31L, Q52Y, R59K, T99S, Q103G
# VL: B1 VL with S26T, N54Q, I92L, H97N
# notes: Built as m8
# B5: Mutation 1-36 (antibody, V domains shown)
# VH: B1 VH with S28T, Q52N, R59K, T99S
# VL: B1 VL with S26T, A29V, I92L
# notes: Built as m8; CDR-VL1 cell printed 'VQ', read as V/Q
# B6: Mutation 1-10 (antibody, V domains shown)
# VH: B1 VH with S28T, I31L, V34L, I55L, R59K, T99S, Q103N
# VL: B1 VL with S26T, A29V, I92L, H97Q
# notes: Built as m8
# B7: Mutation 1-8 (antibody, V domains shown)
# VH: B1 VH with S28T, V34I, I55L, R59K, T99S, Q103G
# VL: B1 VL with S26T, I92L, H97Q
# notes: Built as m8
# B8: Mutation 1-1 (antibody, V domains shown)
# VH: B1 VH with S28T, V34L, R59K, T99S, Q103N
# VL: B1 VL with S26T, Q33N, N54Q, I92L, H97Q
# notes: built as m3
# B9: Mutation 1-23 (antibody, V domains shown)
# VH: B1 VH with S28T, I31L, V34I, Q52Y, R59K, T99S, Q103G
# VL: B1 VL with S26T, A29V, Q33N, N54Q, I92L
# notes: Built as m8
# B10: Mutation 1-30 (antibody, V domains shown)
# VH: B1 VH with S28T, I55L, R59K, T99S
# VL: B1 VL with S26T, I92L, H97Q
# notes: Built as m8
# B11: Mutation 1-38 (antibody, V domains shown)
# VH: B1 VH with S28T, V34I, Q52Y, R59K, T99S, Q103G
# VL: B1 VL with S26T, A29V, I92L, H97N
# notes: Built as m8
# B12: Mutation 1-39 (antibody, V domains shown)
# VH: B1 VH with S28T, I31L, I55L, R59K, T99S
# VL: B1 VL with S26T, A29V, Q33N, N54Q, I92L, H97Q
# notes: Built as m8
# B13: Mutation 1-6 (antibody, V domains shown)
# VH: B1 VH with S28T, I55L, R59K, T99S
# VL: B1 VL with S26T, A29V, I92L, H97N
# notes: Built as m8
# B14: Mutation 1-16 (antibody, V domains shown)
# VH: B1 VH with S28T, I31L, V34L, Q52N, I55L, R59K, T99S, Q103N
# VL: B1 VL with S26T, I92L
# notes: Built as m8
# B15: Mutation 1-22 (antibody, V domains shown)
# VH: B1 VH with S28T, I31L, V34L, Q52Y, R59K, T99S, Q103N
# VL: B1 VL with S26T, A29V, I92L, H97N
# notes: Built as m8
# B16: Mutation 1-18 (antibody, V domains shown)
# VH: B1 VH with S28T, Q52N, I55L, R59K, T99S
# VL: B1 VL with S26T, A29V, I92L
# notes: Built as m8
# B17: Mutation 1-27 (antibody, V domains shown)
# VH: B1 VH with S28T, I31L, Q52Y, I55L, R59K, T99S
# VL: B1 VL with S26T, A29V, Q33N, N54Q, I92L
# notes: Built as m8
# B18: Mutation 1-35 (antibody, V domains shown)
# VH: B1 VH with S28T, I31L, V34I, I55L, R59K, T99S, Q103G
# VL: B1 VL with S26T, Q33N, N54Q, I92L, H97Q
# notes: Built as m8
# B19: Mutation 1-7 (antibody, V domains shown)
# VH: B1 VH with S28T, V34L, I55L, R59K, T99S, Q103N
# VL: B1 VL with S26T, A29V, Q33N, N54Q, I92L
# notes: Built as m8
# B20: Mutation 1-29 (antibody, V domains shown)
# VH: B1 VH with S28T, I31L, V34I, R59K, T99S, Q103G
# VL: B1 VL with S26T, N54Q, I92L, H97N
# notes: Built as m8
# B21: Mutation 1-15 (antibody, V domains shown)
# VH: B1 VH with S28T, I31L, Q52N, R59K, T99S
# VL: B1 VL with S26T, A29V, Q33N, N54Q, I92L, H97N
# notes: Built as m8
# B22: Mutation 1-31 (antibody, V domains shown)
# VH: B1 VH with S28T, V34L, Q52N, R59K, T99S, Q103N
# VL: B1 VL with S26T, N54Q, I92L, H97N
# notes: Built as m8
# B23: Mutation 1-2 (antibody, V domains shown)
# VH: B1 VH with S28T, V34I, R59K, T99S, Q103G
# VL: B1 VL with S26T, A29V, I92L, H97N
# notes: Built as m8
# B24: Mutation 1-5 (antibody, V domains shown)
# VH: B1 VH with S28T, I31L, V34I, R59K, T99S, Q103G
# VL: B1 VL with S26T, Q33N, N54Q, I92L
# notes: Built as m8
# B25: Mutation 1-20 (antibody, V domains shown)
# VH: B1 VH with S28T, V34I, Q52Y, R59K, T99S, Q103G
# VL: B1 VL with S26T, I92L, H97N
# notes: Built as m8
# B26: Mutation 1-24 (antibody, V domains shown)
# VH: B1 VH with S28T, Q52Y, I55L, R59K, T99S
# VL: B1 VL with S26T, I92L, H97N
# notes: Built as m8
# B27: Mutation 1-25 (antibody, V domains shown)
# VH: B1 VH with S28T, V34L, Q52Y, I55L, R59K, T99S, Q103N
# VL: B1 VL with S26T, Q33N, N54Q, I92L
# notes: Built as m8
# B28: Mutation 1-42 (antibody, V domains shown)
# VH: B1 VH with S28T, I31L, Q52N, I55L, R59K, T99S
# VL: B1 VL with S26T, A29V, Q33N, I92L
# notes: Built as m8
# B29: Mutation 1-32 (antibody, V domains shown)
# VH: B1 VH with S28T, V34I, Q52N, I55L, R59K, T99S, Q103G
# VL: B1 VL with S26T, Q33N, I92L
# notes: Built as m8
# B30: Mutation 1-13 (antibody, V domains shown)
# VH: B1 VH with S28T, V34L, Q52N, R59K, T99S, Q103N
# VL: B1 VL with S26T, Q33N, N54Q, I92L, H97N
# notes: Built as m8
# B31: Mutation 1-21 (antibody, V domains shown)
# VH: B1 VH with S28T, I31L, Q52Y, R59K, T99S
# VL: B1 VL with S26T, Q33N, N54Q, I92L, H97Q
# notes: Built as m8
# B32: Mutation 1-14 (antibody, V domains shown)
# VH: B1 VH with S28T, V34I, Q52N, R59K, T99S, Q103G
# VL: B1 VL with S26T, A29V, I92L
# notes: Built as m8
# B33: Mutation 1-37 (antibody, V domains shown)
# VH: B1 VH with S28T, V34L, Q52N, I55L, R59K, T99S, Q103N
# VL: B1 VL with S26T, A29V, N54Q, I92L, H97Q
# notes: Built as m8
# B34: Mutation 1-4 (antibody, V domains shown)
# VH: B1 VH with S28T, I31L, V34L, R59K, T99S, Q103N
# VL: B1 VL with S26T, I92L, H97N
# notes: Built as m8
# B35: Mutation 1-3 (antibody, V domains shown)
# VH: B1 VH with S28T, I31L, R59K, T99S
# VL: B1 VL with S26T, A29V, Q33N, N54Q, I92L, H97Q
# notes: Built as m8
# B36: Mutation 1-40 (antibody, V domains shown)
# VH: B1 VH with S28T, V34L, I55L, R59K, T99S, Q103N
# VL: B1 VL with S26T, A29V, Q33N, I92L, H97N
# notes: Built as m8
# B37: Mutation 1-26 (antibody, V domains shown)
# VH: B1 VH with S28T, V34I, Q52Y, I55L, R59K, T99S, Q103G
# VL: B1 VL with S26T, A29V, I92L, H97Q
# notes: Built as m8
# B38: Mutation 1-34 (antibody, V domains shown)
# VH: B1 VH with S28T, I31L, V34L, R59K, T99S, Q103N
# VL: B1 VL with S26T, Q33N, I92L
# notes: Built as m8
# Target: T1, cTnI quality control product recombinant protein (human, UniProt P19429 2-210, limits assumed)
# T1 construct: treated as the same molecule; also called cTnI antigen; cardiac troponin I
# T1 sequence (P19429 2-210 limits assumed): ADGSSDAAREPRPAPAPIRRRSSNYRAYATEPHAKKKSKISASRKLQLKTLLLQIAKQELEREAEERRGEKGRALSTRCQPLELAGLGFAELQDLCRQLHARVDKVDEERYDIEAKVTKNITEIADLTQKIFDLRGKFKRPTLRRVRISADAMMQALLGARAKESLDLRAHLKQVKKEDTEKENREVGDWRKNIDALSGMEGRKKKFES
# Assay: AMC sensor, antibody immobilised, cTnI in solution
# Procedure: Operating process: it is equilibrated in Buffer 1 (PBST) for 60 s, the antibody is immobilized in an antibody solution for 300 s, incubated in Buffer 2 (PBST) for 180 s, bound in antigen solution for 420 s, dissociated in the Buffer 2 for 1200 s, 10 mM of GLY solution with pH 1.69 and Buffer 3 are used for sensor regeneration, and data is output. KD represents an equilibrium dissociation constant, namely the affinity; Kon represents a binding rate; and Kd is represents a dissociation rate.
Kd,koff,kon,Binder
35.4 nM,0.000527 s⁻¹,14900 M⁻¹ s⁻¹,B1
5.43 nM,0.00024 s⁻¹,44200 M⁻¹ s⁻¹,B2
1.76 nM,0.000158 s⁻¹,89600 M⁻¹ s⁻¹,B3
7.95 nM,0.000331 s⁻¹,41700 M⁻¹ s⁻¹,B4
3.29 nM,0.000118 s⁻¹,36000 M⁻¹ s⁻¹,B5
0.731 nM,4.12e-05 s⁻¹,56300 M⁻¹ s⁻¹,B6
9.31 nM,0.000244 s⁻¹,26200 M⁻¹ s⁻¹,B7
8.27 nM,0.000712 s⁻¹,86100 M⁻¹ s⁻¹,B8
8.49 nM,0.000353 s⁻¹,41600 M⁻¹ s⁻¹,B9
3.71 nM,0.00022 s⁻¹,59500 M⁻¹ s⁻¹,B10
0.254 nM,1.72e-05 s⁻¹,67700 M⁻¹ s⁻¹,B11
1.08 nM,4.72e-05 s⁻¹,43600 M⁻¹ s⁻¹,B12
0.697 nM,5.34e-05 s⁻¹,76600 M⁻¹ s⁻¹,B13
6.48 nM,0.000222 s⁻¹,34300 M⁻¹ s⁻¹,B14
0.106 nM,2.86e-06 s⁻¹,27000 M⁻¹ s⁻¹,B15
9.31 nM,0.000586 s⁻¹,63000 M⁻¹ s⁻¹,B16
0.353 nM,7.31e-06 s⁻¹,20700 M⁻¹ s⁻¹,B17
0.832 nM,4.31e-05 s⁻¹,51800 M⁻¹ s⁻¹,B18
2.77 nM,0.000176 s⁻¹,63600 M⁻¹ s⁻¹,B19

Kd,koff,kon,Binder
3.8 nM,0.000207 s⁻¹,54500 M⁻¹ s⁻¹,B20
0.759 nM,4.7e-05 s⁻¹,61900 M⁻¹ s⁻¹,B21
9.41 nM,0.00034 s⁻¹,36100 M⁻¹ s⁻¹,B22
7.64 nM,0.00061 s⁻¹,79900 M⁻¹ s⁻¹,B23
1.2 nM,4.4e-05 s⁻¹,36800 M⁻¹ s⁻¹,B24
7.74 nM,0.000542 s⁻¹,70000 M⁻¹ s⁻¹,B25
0.63 nM,3.62e-05 s⁻¹,57400 M⁻¹ s⁻¹,B26
6.6 nM,0.00053 s⁻¹,80300 M⁻¹ s⁻¹,B27
0.821 nM,6.8e-05 s⁻¹,82800 M⁻¹ s⁻¹,B28
0.765 nM,5.3e-05 s⁻¹,69300 M⁻¹ s⁻¹,B29
0.139 nM,3.79e-06 s⁻¹,27300 M⁻¹ s⁻¹,B30
1.47 nM,5.71e-05 s⁻¹,38800 M⁻¹ s⁻¹,B31
0.866 nM,2.21e-05 s⁻¹,25500 M⁻¹ s⁻¹,B32
5.21 nM,0.000208 s⁻¹,39900 M⁻¹ s⁻¹,B33
5.03 nM,0.000232 s⁻¹,46200 M⁻¹ s⁻¹,B34
0.399 nM,9.54e-06 s⁻¹,23900 M⁻¹ s⁻¹,B35
1.85 nM,4.05e-05 s⁻¹,21900 M⁻¹ s⁻¹,B36
0.465 nM,1.85e-05 s⁻¹,39800 M⁻¹ s⁻¹,B37
3.41 nM,0.000198 s⁻¹,58000 M⁻¹ s⁻¹,B38
